Consider two molecules from patent publication US20240261333A1 (published 2024).

Common to all, as to assay: co-IP with anti-FLAG, N-FLAG B3GNT2, mass spectrometry
The target of one experiment is T1, TPM3 (human, UniProt P06753-2 2-248).
T1 construct: also called NP_705935.1

The target of the next experiment is T2, YTHDF2 (human, UniProt Q9Y5A9 2-579).
T2 construct: also called NP_057342.2
T2 sequence (looked up): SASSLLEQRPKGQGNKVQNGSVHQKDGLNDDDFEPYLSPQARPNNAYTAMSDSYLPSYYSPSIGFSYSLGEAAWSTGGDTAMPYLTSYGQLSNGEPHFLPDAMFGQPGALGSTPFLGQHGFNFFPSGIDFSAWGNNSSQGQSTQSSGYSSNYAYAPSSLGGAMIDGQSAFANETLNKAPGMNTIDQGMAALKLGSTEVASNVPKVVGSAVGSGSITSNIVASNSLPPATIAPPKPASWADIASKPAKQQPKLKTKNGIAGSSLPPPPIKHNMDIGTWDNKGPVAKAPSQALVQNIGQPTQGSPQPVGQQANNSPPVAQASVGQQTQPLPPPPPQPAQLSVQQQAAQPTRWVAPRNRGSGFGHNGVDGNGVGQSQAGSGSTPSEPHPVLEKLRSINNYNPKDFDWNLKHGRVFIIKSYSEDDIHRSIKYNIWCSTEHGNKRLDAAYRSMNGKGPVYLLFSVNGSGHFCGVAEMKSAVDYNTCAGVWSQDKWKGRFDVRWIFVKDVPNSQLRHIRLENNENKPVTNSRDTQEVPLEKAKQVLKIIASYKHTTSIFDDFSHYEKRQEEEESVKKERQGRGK

For the next experiment, the target named is T3, HNRNPM (human, UniProt P52272 2-730).
T3 construct: also called NP_005959.2 (+1)
T3 sequence (looked up): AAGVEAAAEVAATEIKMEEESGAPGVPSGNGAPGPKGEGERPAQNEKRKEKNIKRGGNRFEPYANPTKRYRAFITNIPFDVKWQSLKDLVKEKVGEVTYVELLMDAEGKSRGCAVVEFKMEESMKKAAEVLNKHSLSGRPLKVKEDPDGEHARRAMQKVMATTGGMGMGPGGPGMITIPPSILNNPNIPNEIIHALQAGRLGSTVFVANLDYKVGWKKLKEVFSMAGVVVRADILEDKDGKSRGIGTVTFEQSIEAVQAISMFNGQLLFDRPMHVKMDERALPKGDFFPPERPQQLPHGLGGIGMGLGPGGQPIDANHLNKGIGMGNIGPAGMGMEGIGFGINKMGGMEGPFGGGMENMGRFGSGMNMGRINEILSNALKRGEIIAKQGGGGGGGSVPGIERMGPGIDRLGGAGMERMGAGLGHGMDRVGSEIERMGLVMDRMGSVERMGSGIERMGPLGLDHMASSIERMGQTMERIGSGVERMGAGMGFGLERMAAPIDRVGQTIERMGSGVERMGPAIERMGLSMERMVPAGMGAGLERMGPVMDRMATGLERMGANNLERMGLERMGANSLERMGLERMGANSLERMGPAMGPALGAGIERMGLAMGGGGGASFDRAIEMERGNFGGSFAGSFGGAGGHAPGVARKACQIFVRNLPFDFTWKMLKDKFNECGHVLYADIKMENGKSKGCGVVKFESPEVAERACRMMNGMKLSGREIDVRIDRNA

The next experiment has as its target T4, RUVBL2 (human, UniProt Q9Y230 2-463).
T4 construct: also called NP_006657.1

T4 sequence (Q9Y230 2-463 limits assumed): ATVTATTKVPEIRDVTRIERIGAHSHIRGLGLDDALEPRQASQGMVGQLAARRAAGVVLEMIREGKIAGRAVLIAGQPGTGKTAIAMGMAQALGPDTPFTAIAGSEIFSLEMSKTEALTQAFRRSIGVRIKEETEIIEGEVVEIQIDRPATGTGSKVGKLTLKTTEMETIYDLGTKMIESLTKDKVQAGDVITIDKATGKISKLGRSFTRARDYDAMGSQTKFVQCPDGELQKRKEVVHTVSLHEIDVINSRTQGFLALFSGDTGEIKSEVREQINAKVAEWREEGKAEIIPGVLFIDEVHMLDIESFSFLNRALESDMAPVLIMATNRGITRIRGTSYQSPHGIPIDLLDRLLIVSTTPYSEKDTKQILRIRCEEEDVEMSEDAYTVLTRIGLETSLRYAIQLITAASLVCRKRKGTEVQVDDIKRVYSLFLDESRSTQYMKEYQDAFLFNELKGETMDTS
T1 sequence (P06753 other isoform, or with tags, fused parts or gaps limits assumed): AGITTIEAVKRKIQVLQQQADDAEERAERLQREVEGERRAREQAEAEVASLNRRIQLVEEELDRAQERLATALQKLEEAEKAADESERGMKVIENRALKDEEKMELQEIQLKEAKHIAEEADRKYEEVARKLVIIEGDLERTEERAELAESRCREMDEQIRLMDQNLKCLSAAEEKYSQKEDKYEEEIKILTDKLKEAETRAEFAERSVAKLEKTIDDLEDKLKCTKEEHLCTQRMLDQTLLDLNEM

B1: N-terminal FLAG tagged B3GNT2 (enzyme, human, UniProt Q9NY97 1-397, looked up)
chain: MSVGRRRIKLLGILMMANVFIYFIMEVSKSSSQEKNGKGEVIIPKEKFWKISTPPEAYWNREQEKLNRQYNPILSMLTNQTGEAGRLSNISHLNYCEPDLRVTSVVTGFNNLPDRFKDFLLYLRCRNYSLLIDQPDKCAKKPFLLLAIKSLTPHFARRQAIRESWGQESNAGNQTVVRVFLLGQTPPEDNHPDLSDMLKFESEKHQDILMWNYRDTFFNLSLKEVLFLRWVSTSCPDTEFVFKGDDDVFVNTHHILNYLNSLSKTKAKDLFIGDVIHNAGPHRDKKLKYYIPEVVYSGLYPPYAGGGGFLYSGHLALRLYHITDQVHLYPIDDVYTGMCLQKLGLVPEKHKGFRTFDIEEKNKNNICSYVDLMLVHSRKPQEMIDIWSQLQSAHLKC
notes: FLAG-tagged ORF overexpressed in cells; pulled down from lysate with mouse anti-FLAG; also called N-FLAG B3GNT2; N-term FLAG; not shown: N-terminal FLAG tag
As for B1, the “co-IP mass spectrometry count” value in the experiment with TPM3 is 6; in the experiment with YTHDF2, 5; with HNRNPM, 6.

B2: N-terminal FLAG tagged B3GNT2 (enzyme, human, UniProt Q9NY97 1-397, looked up)
chain: B1 chain
notes: FLAG-tagged ORF overexpressed in A375 cells; pulled down from the lysate with mouse anti-FLAG; also called N-FLAG B3GNT2; N-term FLAG; not shown: N-terminal FLAG tag
As for B2, the “co-IP/MS count, N-term FLAG” value in the experiment with RUVBL2 was determined as 0.
